Reference: patent publication US20150140013A1 (GENERAL HOSPITAL, published 2015)

Biological target: T1, RAPTOR (UniProt Q8N122 1-1335)
T1 construct: Endogenous protein in lysates of human cancer cell lines
Assay: co-immunoprecipitation with anti-FAK from whole-cell lysates of HCT116 and MCF7 cells in mitosis, immunoblot with anti-RAPTOR
Description: The immunoprecipitates were washed and resolved by SDS-PAGE. For western blots: primary antibody: RICTOR, mTOR (Cell Signaling), Raptor, FAK, β1-integrin, TTC3 (AbCam).
Standard protocols were used for SDS-PAGE electrophoresis and the following primary antibodies: α-RICTOR, α-mTOR, Phospho-AKT-Ser473 (D9E; Cell Signaling Technology) and α-RAPTOR, α-FAK, α-β1-integrin, α-TTC3, Pan-AKT, and GAPDH (Abcam). For immunoprecipitation studies, cells were synchronized with 200 ng/mL of nocodazole for 12 hours and then released for 2 hours. Cells were rinsed with PBS, fixed with 0.37% formalde-hyde, and quenched with 0.25 mol/L glycine. Cell lysates were prepared in lysis buffer [1% Triton X-100, 150 mmol/L NaCl, 3 mmol/L MgCl, 40 mmol/L HEPES (pH 7.5), 50 mmol/L NaF, EDTA-free protease inhibitor and phosphatase inhibitor (Roche)] and centrifuged at 14,000×g for 10 minutes. Supernatant (250 μg) was incubated with the indicated antibodies [α-FAK (AbCam), α-RICTOR (Santa Cruz Biotechnology)], for 4 hours at 4° C. with rotation and then with 50 μL of a 50% slurry of protein G-sepharose (Roche) for 1 hour Immunoprecipitates were washed and resolved by SDS-PAGE electrophoresis.
To identify an upstream regulator that might activate mTORC2 signaling during asymmetric division, an immunoprecipitation approach was used to identify proteins that physically interact with the mTORC2 complex during mitosis. […]

T1 sequence (Q8N122 whole entry): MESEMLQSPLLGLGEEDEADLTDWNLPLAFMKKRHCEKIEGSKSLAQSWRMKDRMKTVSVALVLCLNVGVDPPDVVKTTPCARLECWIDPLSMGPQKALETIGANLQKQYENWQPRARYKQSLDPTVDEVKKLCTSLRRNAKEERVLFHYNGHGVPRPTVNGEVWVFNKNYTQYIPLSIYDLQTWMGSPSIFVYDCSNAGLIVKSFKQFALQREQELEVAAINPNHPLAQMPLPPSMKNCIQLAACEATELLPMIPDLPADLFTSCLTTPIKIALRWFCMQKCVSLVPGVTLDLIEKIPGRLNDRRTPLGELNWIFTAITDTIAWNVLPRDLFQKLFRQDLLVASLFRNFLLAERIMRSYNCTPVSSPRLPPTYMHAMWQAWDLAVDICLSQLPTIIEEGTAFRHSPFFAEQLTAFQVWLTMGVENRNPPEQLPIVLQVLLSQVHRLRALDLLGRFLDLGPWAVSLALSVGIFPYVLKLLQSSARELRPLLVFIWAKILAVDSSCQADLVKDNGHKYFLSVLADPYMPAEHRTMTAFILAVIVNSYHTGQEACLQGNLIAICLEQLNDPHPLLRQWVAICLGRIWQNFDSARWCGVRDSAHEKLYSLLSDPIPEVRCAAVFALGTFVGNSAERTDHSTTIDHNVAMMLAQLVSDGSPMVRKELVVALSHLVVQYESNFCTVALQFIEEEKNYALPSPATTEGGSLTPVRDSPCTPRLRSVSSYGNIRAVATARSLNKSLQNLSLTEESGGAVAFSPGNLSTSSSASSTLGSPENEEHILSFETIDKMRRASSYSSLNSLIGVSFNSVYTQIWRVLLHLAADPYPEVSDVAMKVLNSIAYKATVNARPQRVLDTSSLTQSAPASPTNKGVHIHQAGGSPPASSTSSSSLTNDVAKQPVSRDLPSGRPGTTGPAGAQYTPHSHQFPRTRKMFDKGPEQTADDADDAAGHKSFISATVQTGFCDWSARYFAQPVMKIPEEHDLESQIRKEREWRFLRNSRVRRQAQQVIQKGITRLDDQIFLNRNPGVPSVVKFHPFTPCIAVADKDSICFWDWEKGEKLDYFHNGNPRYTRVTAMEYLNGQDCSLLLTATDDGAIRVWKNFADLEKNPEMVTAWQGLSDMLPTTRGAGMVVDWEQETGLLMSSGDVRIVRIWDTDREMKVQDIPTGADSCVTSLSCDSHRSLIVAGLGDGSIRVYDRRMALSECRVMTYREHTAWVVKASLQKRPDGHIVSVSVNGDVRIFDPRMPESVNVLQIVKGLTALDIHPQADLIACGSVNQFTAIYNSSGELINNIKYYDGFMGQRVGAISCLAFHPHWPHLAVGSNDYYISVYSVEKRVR

binding result: no binding
B1: focal adhesion kinase (FAK) (enzyme, human, UniProt Q05397 2-1052, looked up)
chain: AAAYLDPNLNHTPNSSTKTHLGTGMERSPGAMERVLKVFHYFESNSEPTTWASIIRHGDATDVRGIIQKIVDSHKVKHVACYGFRLSHLRSEEVHWLHVDMGVSSVREKYELAHPPEEWKYELRIRYLPKGFLNQFTEDKPTLNFFYQQVKSDYMLEIADQVDQEIALKLGCLEIRRSYWEMRGNALEKKSNYEVLEKDVGLKRFFPKSLLDSVKAKTLRKLIQQTFRQFANLNREESILKFFEILSPVYRFDKECFKCALGSSWIISVELAIGPEEGISYLTDKGCNPTHLADFTQVQTIQYSNSEDKDRKGMLQLKIAGAPEPLTVTAPSLTIAENMADLIDGYCRLVNGTSQSFIIRPQKEGERALPSIPKLANSEKQGMRTHAVSVSETDDYAEIIDEEDTYTMPSTRDYEIQRERIELGRCIGEGQFGDVHQGIYMSPENPALAVAIKTCKNCTSDSVREKFLQEALTMRQFDHPHIVKLIGVITENPVWIIMELCTLGELRSFLQVRKYSLDLASLILYAYQLSTALAYLESKRFVHRDIAARNVLVSSNDCVKLGDFGLSRYMEDSTYYKASKGKLPIKWMAPESINFRRFTSASDVWMFGVCMWEILMHGVKPFQGVKNNDVIGRIENGERLPMPPNCPPTLYSLMTKCWAYDPSRRPRFTELKAQLSTILEEEKAQQEERMRMESRRQATVSWDSGGSDEAPPKPSRPGYPSPRSSEGFYPSPQHMVQTNHYQVSGYPGSHGITAMAGSIYPGQASLLDQTDSWNHRPQEIAMWQPNVEDSTVLDLRGIGQVLPTHLMEERLIRQQQEMEEDQRWLEKEERFLKPDVRLSRGSIDREDGSLQGPIGNQHIYQPVGKPDPAAPPKKPPRPGAPGHLGSLASLSSPADSYNEGVKLQPQEISPPPTANLDRSNDKVYENVTGLVKAVIEMSSKIQPAPPEEYVPMVKEVGLALRTLLATVDETIPLLPASTHREIEMAQKLLNSDLGELINKMKLAQQYVMTSLQQEYKKQMLTAAHALAVDAKNLLDVIDQARLKMLGQTRPH
notes: Endogenous protein of the human cancer cell lines HCT116 and MCF7; lysates of formaldehyde-fixed cells were used for immunoprecipitation; also called PTK2
